{
  "source": "paper PMC5055493",
  "about": "“The PilZ domain of MrkH represents a novel DNA binding motif” (Protein & Cell, 2016)",
  "key": {"MrkH^105-end": {"molecular_target": "T1, MrkH^105-end (Klebsiella pneumoniae, UniProt G3FT00)", "T1 construct": "PilZ domain with interdomain linker, residues 105-end", "test": "ITC", "format": "binding", "source_text": "ITC on MrkH^105-end | MrkH^105-end also binds to c-di-GMP efficiently"}, "MrkH": {"molecular_target": "T2, MrkH (Klebsiella pneumoniae, UniProt G3FT00)", "T2 construct": "full-length MrkH, YcgR-N plus PilZ domains; monomer; recombinant", "test": "ITC", "format": "binding"}, "[1]": {"molecular_target": "T3, MBP-MrkH (Klebsiella pneumoniae) (UniProt G3FT00)", "T3 sequence": "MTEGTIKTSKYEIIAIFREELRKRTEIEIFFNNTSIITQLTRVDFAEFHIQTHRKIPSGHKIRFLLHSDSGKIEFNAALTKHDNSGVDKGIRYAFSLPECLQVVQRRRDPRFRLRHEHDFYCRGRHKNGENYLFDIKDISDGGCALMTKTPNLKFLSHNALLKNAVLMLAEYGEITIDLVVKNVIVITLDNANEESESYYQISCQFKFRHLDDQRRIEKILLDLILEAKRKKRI", "test": "EMSA", "settings": "EMSA: 50 mM Tris pH 8.0, 100 mM NaCl, 5 mM MgCl2, 20 ul, 100 min on ice; FP: 10 nM FAM-DNA, 25 C, buffer not fully given. Fig. 2G Kd values (High, 10.3, High …)"}, "[2]": {"molecular_target": "T4, MBP-MrkH-PilZ domain (Klebsiella pneumoniae) (UniProt G3FT00)", "T4 sequence": "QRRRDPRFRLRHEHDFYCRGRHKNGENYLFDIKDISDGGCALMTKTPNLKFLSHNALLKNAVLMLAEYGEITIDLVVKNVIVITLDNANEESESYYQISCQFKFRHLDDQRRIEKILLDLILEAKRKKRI", "test": "EMSA", "settings": "EMSA: 50 mM Tris pH 8.0, 100 mM NaCl, 5 mM MgCl2, 20 ul, 100 min on ice; FP: 10 nM FAM-DNA, 25 C, buffer not fully given. Fig. 2G Kd values (High, 10.3, High …)"}, "[3]": {"molecular_target": "T5, MrkH (tag removed) (Klebsiella pneumoniae) (UniProt G3FT00)", "T5 sequence": "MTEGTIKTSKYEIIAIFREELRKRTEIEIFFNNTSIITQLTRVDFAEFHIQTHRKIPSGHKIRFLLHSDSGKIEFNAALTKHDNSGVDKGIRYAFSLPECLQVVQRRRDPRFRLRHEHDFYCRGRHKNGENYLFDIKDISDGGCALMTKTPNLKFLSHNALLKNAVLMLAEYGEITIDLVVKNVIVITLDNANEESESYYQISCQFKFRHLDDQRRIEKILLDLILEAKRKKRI", "test": "fluorescence polarization", "settings": "EMSA: 50 mM Tris pH 8.0, 100 mM NaCl, 5 mM MgCl2, 20 ul, 100 min on ice; FP: 10 nM FAM-DNA, 25 C, buffer not fully given. Fig. 2G Kd values (High, 10.3, High …)"}, "MrkH K163A": {"molecular_target": "MrkH K163A (Klebsiella pneumoniae, UniProt G3FT00 1-234, K163A)", "test": "fluorescence polarization; little effect of mutation; EMSA: 50 mM Tris pH 8.0, 100 mM NaCl, 5 mM MgCl2, 20 ul, 100 min on ice; FP: 10 nM FAM-DNA, 25 C, buffer not fully given. Fig. 2G Kd values (High, 10.3, High, 7.5, 24.3, 10.6, 12.7, High) cannot be assigned to mutants. PilZ mutants of Fig. S3B (all lose mrkA binding in EMSA) are not individually named in the material", "settings": "protein: recombinant; tags: none; label: 5'-FAM; blunt"}, "MrkH K89A": {"molecular_target": "MrkH K89A (Klebsiella pneumoniae, UniProt G3FT00 1-234, K89A)", "test": "fluorescence polarization; little effect of mutation; EMSA: 50 mM Tris pH 8.0, 100 mM NaCl, 5 mM MgCl2, 20 ul, 100 min on ice; FP: 10 nM FAM-DNA, 25 C, buffer not fully given. Fig. 2G Kd values (High, 10.3, High, 7.5, 24.3, 10.6, 12.7, High) cannot be assigned to mutants. PilZ mutants of Fig. S3B (all lose mrkA binding in EMSA) are not individually named in the material", "settings": "protein: recombinant; tags: none; label: 5'-FAM; blunt"}, "MrkH K207A": {"molecular_target": "MrkH K207A (Klebsiella pneumoniae, UniProt G3FT00 1-234, K207A)", "test": "fluorescence polarization; little effect of mutation; EMSA: 50 mM Tris pH 8.0, 100 mM NaCl, 5 mM MgCl2, 20 ul, 100 min on ice; FP: 10 nM FAM-DNA, 25 C, buffer not fully given. Fig. 2G Kd values (High, 10.3, High, 7.5, 24.3, 10.6, 12.7, High) cannot be assigned to mutants. PilZ mutants of Fig. S3B (all lose mrkA binding in EMSA) are not individually named in the material", "settings": "protein: recombinant; tags: none; label: 5'-FAM; blunt"}, "MrkH K154A": {"molecular_target": "MrkH K154A (Klebsiella pneumoniae, UniProt G3FT00 1-234, K154A)", "test": "fluorescence polarization; little effect of mutation; EMSA: 50 mM Tris pH 8.0, 100 mM NaCl, 5 mM MgCl2, 20 ul, 100 min on ice; FP: 10 nM FAM-DNA, 25 C, buffer not fully given. Fig. 2G Kd values (High, 10.3, High, 7.5, 24.3, 10.6, 12.7, High) cannot be assigned to mutants. PilZ mutants of Fig. S3B (all lose mrkA binding in EMSA) are not individually named in the material", "settings": "protein: recombinant; tags: none; label: 5'-FAM; blunt"}, "MrkH (tag removed) [4]": {"molecular_target": "T6, MrkH (tag removed) (Klebsiella pneumoniae, UniProt G3FT00 1-234)", "test": "fluorescence polarization; no c-di-GMP; EMSA: 50 mM Tris pH 8.0, 100 mM NaCl, 5 mM MgCl2, 20 ul, 100 min on ice; FP: 10 nM FAM-DNA, 25 C, buffer not fully given. Fig. 2G Kd values (High, 10.3, High, 7.5, 24.3, 10.6, 12.7, High) cannot be assigned to mutants. PilZ mutants of Fig. S3B (all lose mrkA binding in EMSA) are not individually named in the material", "settings": "protein: recombinant; tags: none (tag removed for FP); label: 5'-FAM; blunt"}, "MrkH (tag removed) [5]": {"molecular_target": "T6, MrkH (tag removed)", "test": "fluorescence polarization; EMSA: 50 mM Tris pH 8.0, 100 mM NaCl, 5 mM MgCl2, 20 ul, 100 min on ice; FP: 10 nM FAM-DNA, 25 C, buffer not fully given. Fig. 2G Kd values (High, 10.3, High, 7.5, 24.3, 10.6, 12.7, High) cannot be assigned to mutants. PilZ mutants of Fig. S3B (all lose mrkA binding in EMSA) are not individually named in the material", "settings": "protein: recombinant; tags: none (tag removed for FP); label: 5'-FAM; blunt"}},
  "data": [
    {"molecule": "Nc1nc2c(ncn2[C@@H]2O[C@@H]3CO[P@](=O)(O)O[C@H]4[C@@H](O)[C@H](n5cnc6c(=O)[nH]c(N)nc65)O[C@@H]4CO[P@](=O)(O)O[C@H]3[C@H]2O)c(=O)[nH]1", "note": "[c-di-GMP]", "values": [
      {"measurement": "Kd", "setting": "MrkH^105-end", "result": "0.45 ± 0.1", "unit": "µM"},
      {"measurement": "Kd", "setting": "MrkH", "result": "~0.24", "unit": "µM"}
    ]},
    {"molecule": "ACTTAAGTTTTTATCCTTCGACCGGTCTCCAGCTTGGAGGCCGTTGTCGTTTTTGTCATGACCAAAATTCGAAACTCTTGATTACAGGAAATACAATATCAAATTCCAAGTTTATACATATCAATCTGGCTGCAAAGATAGTCAATAACATCAAACGCTCATAAAAACATCTGATTAACCCAATCAGAATGTTGCTATTGCTATAAGAAAAATCAAACGCCTCACGACAACTATTTACAAGGGATGCAT (double strand) [mrkHI promoter 250 bp]", "values": [
      {"measurement": "binding", "setting": "[1]", "result": "binds"},
      {"measurement": "binding", "setting": "[2]", "result": "binds"}
    ]},
    {"molecule": "GCTGCGCTGTAAACAACCACCCTCGCGTTTTCATCTATCAATGGCTGTTTATTAATAGTCGATGGTTATCTGTTATATAACTTAATGAAACGTGAACAAATGTATATTTGTCGGCGAATAAATAGCATTCTTTGACGCCGATAGCACCAGCGAACTTATATTTTTAGGTTCGTTACCTGACGCCTTAAATATTGCGGCTCCCGGTCAGTCGAAGATTCTATTAGCAGTGGCATAAATCAGCATCGCCTGATGTTTCTGGTTCTATGCGAATTCACAGTGTGCT (double strand) [PmrkA -117 to +166 (FAM)]", "values": [
      {"measurement": "Kd", "setting": "[3]", "result": 3.07, "unit": "µM"}
    ]},
    {"molecule": "PmrkA -117 to -37 (FAM) (dsDNA) DNA 1: GCTGCGCTGTAAACAACCACCCTCGCGTTTTCATCTATCAATGGCTGTTTATTAATAGTCGATGGTTATCTGTTATATAA DNA 2: TTATATAACAGATAACCATCGACTATTAATAAACAGCCATTGATAGATGAAAACGCGAGGGTGGTTGTTTACAGCGCAGC", "values": [
      {"measurement": "binding result", "setting": "MrkH K163A", "result": "binds"},
      {"measurement": "binding result", "setting": "MrkH K89A", "result": "binds"},
      {"measurement": "binding result", "setting": "MrkH K207A", "result": "binds"},
      {"measurement": "binding result", "setting": "MrkH K154A", "result": "binds"},
      {"measurement": "Kd", "setting": "MrkH (tag removed) [4]", "result": "8.24 ± 2.23", "unit": "µM"}
    ]},
    {"molecule": "80 bp random sequence (FAM) (dsDNA) DNA 1: ATAAATAGCATTCTTTGACGCCGATAGCACCAGCGAACTTATATTTTTAGGTTCGTTACCTGACGCCTTAAATATTGCGG DNA 2: CCGCAATATTTAAGGCGTCAGGTAACGAACCTAAAAATATAAGTTCGCTGGTGCTATCGGCGTCAAAGAATGCTATTTAT", "values": [
      {"measurement": "Kd", "setting": "MrkH (tag removed) [5]", "result": "7.45 ± 2.81", "unit": "µM"}
    ]}
  ]
}
